Results reported in patent US20250320281A1.

Key:
Test in all cases: cell-based or functional assay
[1] = molecular target: HIV-1 Env of isolate CAAN (clade B pseudovirus) (HIV-1)
[2] = molecular target: HIV-1 92TH021 Env (HIV-1)
[3] = molecular target: HIV-1 MGRM-C-028 Env (HIV-1)
[4] = molecular target: HIV-1 MGRM-AG-005 Env (pseudovirus) (HIV-1 isolate MGRM-AG-005 (clade AG))
[5] = molecular target: HIV-1 MGRM-D-018 Env (pseudovirus) (HIV-1 isolate MGRM-D-018 (clade D))
[6] = molecular target: aMLV envelope (control pseudovirus) (aMLV)
[7] = molecular target: HIV-1 Env of isolate MGRM-F1-017 (clade F pseudovirus) (HIV-1)
[8] = molecular target: HIV-1 Env of isolate JRFL (HIV-1)
[9] = molecular target: HIV-1 Env of pseudovirus 92UG037 (subtype A) (HIV-1)
[10] = molecular target: HIV-1 Env of pseudovirus MGRM-AG-012 (subtype AG) (HIV-1)
[11] = molecular target: HIV-1 Env of isolate MG RM-D-028 (HIV-1)
[12] = molecular target: HIV-1 Env of isolate MGRM-F1-008 (HIV-1)
[13] = molecular target: HIV-1 Env of pseudovirus MGRM-AG-005 (subtype AG) (HIV-1)
[14] = molecular target: HIV-1 Env of pseudovirus MGRM-AG-013 (subtype AG) (HIV-1)
[15] = molecular target: HIV-1 Env of pseudovirus MGRM-AE-008 (subtype AE) (HIV-1)

Sequence of 1443_C16 (PG16) (TCN-116) (antibody) (VH): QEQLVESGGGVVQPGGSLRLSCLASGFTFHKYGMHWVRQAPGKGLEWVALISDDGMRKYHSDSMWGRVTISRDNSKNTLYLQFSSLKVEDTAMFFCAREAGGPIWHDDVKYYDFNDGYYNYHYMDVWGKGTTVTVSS
Sequence of 1443_C16 (PG16) (TCN-116) (antibody) (VL): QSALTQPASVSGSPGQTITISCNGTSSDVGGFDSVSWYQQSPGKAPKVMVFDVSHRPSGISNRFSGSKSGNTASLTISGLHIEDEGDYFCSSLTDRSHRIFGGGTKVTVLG

Work on 1443_C16 (PG16) (TCN-116) (antibody) yielded an IC50 (neutralization, TZM-bl pseudovirus assay) [1] of 6.37 µg/mL.

Work on 4877_D15 (PGT-122) (antibody) yielded a Neutralization by PGT-122, IC50 [2] greater than 10 µg/mL, a Neutralization by PGT-122, IC80 [2] greater than 10 µg/mL and a Neutralization by PGT-122, IC90 [2] greater than 10 µg/mL. The Neutralization by PGT-122, IC95 [2] was greater than 10 µg/mL, the Neutralization by PGT-122, IC50 [3] was 2.06 µg/mL and the Neutralization by PGT-122, IC80 [3] was greater than 10 µg/mL. For the same substance, the Neutralization by PGT-122, IC90 [3] was greater than 10 µg/mL and the Neutralization by PGT-122, IC95 [3] was greater than 10 µg/mL.

5123_A06 (PGT-125) (antibody) showed a Neutralization by PGT-125, IC50 [4] greater than 10 µg/mL, a Neutralization by PGT-125, IC80 [4] greater than 10 µg/mL and a Neutralization by PGT-125, IC90 [4] greater than 10 µg/mL. For the same substance, the Neutralization by PGT-125, IC95 [4] was greater than 10 µg/mL, the Neutralization by PGT-125, IC50 [5] was 0.0382 µg/mL and the Neutralization by PGT-125, IC80 [5] was 0.144 µg/mL. The Neutralization by PGT-125, IC90 [5] was 0.339 µg/mL, the Neutralization by PGT-125, IC95 [5] was 0.892 µg/mL and the Neutralization by PGT-125, IC50 [6] was greater than 10 µg/mL. It also gave a Neutralization by PGT-125, IC80 [6] greater than 10 µg/mL, a Neutralization by PGT-125, IC90 [6] greater than 10 µg/mL and a Neutralization by PGT-125, IC95 [6] greater than 10 µg/mL.

In the case of PGV04 (antibody), the IC50 (µg/mL), pseudovirus neutralization [7] is reported as 2.38 µg/mL, the IC50 (µg/mL), pseudovirus neutralization [8] is reported as 0.032 µg/mL and the IC50, pseudovirus neutralization [9] is reported as 0.145 µg/mL.

In the case of VRC01 (antibody), the IC50, pseudovirus neutralization [10] is reported as 0.031 µg/mL, the IC50 [11] is reported as 0.377 µg/mL and the IC50 [12] is reported as 1.11 µg/mL. For the same substance, the IC50, pseudovirus neutralization [13] was 0.091 µg/mL, the IC50, pseudovirus neutralization [14] was 0.197 µg/mL and the IC50, pseudovirus neutralization [15] was 1.72 µg/mL.
